The supplement of paper PMC10724198
± gives the standard deviation of the averaged measurements.

Key:
Saccharomyces cerevisiae [1] = assay: protein stability index of tFT-peptide fusion (C-terminal peptide) (PSI (0-1 scale)); higher = more stable (slower turnover)
Protocol: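 MPS profiling in S. cerevisiae of the tFT-X12 degron library: putative degron peptides plus stable controls, 12 aa, fused to the C-terminus of a sfGFP-mCherry timer. Cells are FACS-sorted into 8 mCherry/sfGFP bins and deep-sequenced. PSI runs from 0 (unstable) to 1 (stable). Backgrounds are wild type, das1Δ and doa10Δ at 30 °C, and wild type, das1Δ, cdc34-1 and cdc53-1 at 37 °C; 2-3 technical replicates each.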

Saccharomyces cerevisiae [2] = assay: as above; details: genetic background: wild type; temperature: 30 C
[3] = genetic background: cdc34-1, temperature: 37 C
[4] = genetic background: cdc53-1, temperature: 37 C
[5] = genetic background: das1 deletion, temperature: 30 C
[6] = genetic background: das1 deletion, temperature: 37 C
[7] = genetic background: doa10 deletion, temperature: 30 C
[8] = genetic background: wild type, temperature: 30 C
[9] = genetic background: wild type, temperature: 37 C
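Further: PSI is a weighted mean of sequencing reads over stability bins, variants kept only with over 10 reads, mCherry proximal and sfGFP distal, peptide attached via GGGS linker.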

Sequence | protein stability index (Saccharomyces cerevisiae [2]) | further results
APPRSLSPPLLS | – | protein stability index (Saccharomyces cerevisiae [1]; [3]): 0.6637 ± 0.0036; protein stability index (Saccharomyces cerevisiae [1]; [4]): 0.701 ± 0.011; protein stability index (Saccharomyces cerevisiae [1]; [5]): 0.672 ± 0.022; protein stability index (Saccharomyces cerevisiae [1]; [6]): 0.71 ± 0.0073; protein stability index (Saccharomyces cerevisiae [1]; [7]): 0.679 ± 0.0075; protein stability index (Saccharomyces cerevisiae [1]; [8]): 0.6795 ± 0.0034; protein stability index (Saccharomyces cerevisiae [1]; [9]): 0.689 ± 0.016
VWVVRGFLGFGG | – | protein stability index (Saccharomyces cerevisiae [1]; [3]): 0.532 ± 0.068; protein stability index (Saccharomyces cerevisiae [1]; [4]): 0.526 ± 0.029; protein stability index (Saccharomyces cerevisiae [1]; [5]): 0.4302 ± 0.0014; protein stability index (Saccharomyces cerevisiae [1]; [6]): 0.457 ± 0.012; protein stability index (Saccharomyces cerevisiae [1]; [7]): 0.437 ± 0.0075; protein stability index (Saccharomyces cerevisiae [1]; [8]): 0.438 ± 0.014; protein stability index (Saccharomyces cerevisiae [1]; [9]): 0.4411 ± 0.00055
CHPFGLPFMLEF | 0.721 ± 0.026 | –
FRVSVRTVSSLR | 0.654 ± 0.037 | –
GFTLCPVSLGYF | 0.688 ± 0.017 | –
PLPPPPAHPPPP | 0.616 ± 0.03 | –
TPVPIARLRESH | 0.709 ± 0.035 | –
DLGWGRWYVVVG | 0.678 ± 0.0083 | –
CYLGSGFLFFLL | 0.5209 ± 0.00091 | –
GRLQRKQRKYKA | 0.719 ± 0.0083 | –
VWRSTVRVSRAG | 0.763 ± 0.051 | –
TPHRVGRAAATR | 0.675 ± 0.02 | –
VVSAIISGLSIK | 0.733 ± 0.0088 | –
PPPLPPGPALPL | 0.732 ± 0.012 | –
MLRSGDFSSPPN | 0.694 ± 0.042 | –
RHPPVPCIAQIR | 0.658 ± 0.024 | –
VSYFARCLGSLA | 0.629 ± 0.0011 | –
GGCIGAKSVGGG | 0.652 ± 0.027 | –
LALTIVKFGDLS | 0.789 ± 0.057 | –
QTDHINKTTAKI | 0.684 ± 0.021 | –
CLFPVSLPCPTN | 0.714 ± 0.018 | –
GVRAPPSPVSGL | 0.6711 ± 0.0066 | –

Sequence | protein stability index (Saccharomyces cerevisiae [2]) | further results
PPGSFWLQARVR | 0.705 ± 0.071 | –
VGRGGGVSLGGR | 0.671 ± 0.082 | –
PPPPLPPPSPPL | 0.7319 ± 0.0043 | –
QCLFPVAYYLTP | 0.657 ± 0.0097 | –
SRGTKAERISIG | 0.654 ± 0.013 | –
LYTSPLPAAFQL | 0.726 ± 0.038 | –
GRARWVGGEGVW | 0.706 ± 0.025 | –
PDPTLPTPSRPP | 0.642 ± 0.024 | –
KKKKKQRGKKQK | 0.722 ± 0.014 | –
PFPRPALPAYQS | 0.705 ± 0.018 | –
SKLRDFHVLVTH | 0.611 ± 0.011 | –
FFLSSLFPSFSS | 0.796 ± 0.044 | –
VGGPRVLVRGVY | 0.6754 ± 0.0055 | –
CECANLIAHFCV | 0.6253 ± 0.0059 | –
PAPCAPLLTHRP | 0.6614 ± 0.0025 | –
PPPHHPIMPAKQ | 0.63 ± 0.027 | –
ARFVAGLTKVDV | 0.65 ± 0.029 | –
RHIKIADYKTLT | 0.686 ± 0.04 | –
CFLIFQRSWLFR | 0.576 ± 0.066 | –
VPPCESLSALSS | 0.707 ± 0.034 | –
YALLLPRSVFQF | 0.517 ± 0.038 | –
SMSPHKCSVCFC | 0.644 ± 0.045 | –

Sequence | protein stability index (Saccharomyces cerevisiae [2]) | further results
ARRCRPVFRHAI | 0.639 ± 0.007 | –
NFATLFSLCCLY | 0.611 ± 0.011 | –
VGWHFPDGVVDC | 0.8 ± 0.12 | –
SMSPPLSLFPSF | 0.841 ± 0.096 | –
PPASLPPPTAFN | 0.764 ± 0.049 | –
FNETVLYIVPNG | 0.639 ± 0.065 | –
GREGAADGWACG | 0.652 ± 0.055 | –
LPHLFLSVPSSP | 0.665 ± 0.038 | –
PLSCFIPPVSSW | 0.666 ± 0.027 | –
AVWLEAVSVSLS | 0.612 ± 0.012 | –
SVWFSFVKVRGG | 0.612 ± 0.0037 | –
GTSERKVLNRKR | 0.764 ± 0.015 | –
PVETVRCCLACP | 0.64643 ± 0.00047 | –
PGCPRDRLLLQL | 0.67 ± 0.025 | –
SLRLAHSPPDEV | 0.749 ± 0.17 | –
FAFRGFLIGCGV | 0.54 ± 0.011 | –
PPGYGISYLLIE | 0.66 ± 0.07 | –
RVGWCGGGRGGR | 0.658 ± 0.048 | –
LIPTPPPHPPSP | 0.679 ± 0.023 | –
PRLQLHSDPNCS | 0.733 ± 0.087 | –
SGVVLVRCEGRR | 0.754 ± 0.15 | –
RWSVIHARLLSP | 0.846 ± 0.19 | –

Sequence | protein stability index (Saccharomyces cerevisiae [2]) | further results
FVLRFVLSLVFF | 0.494 ± 0.083 | –
ASVLSTQDPGEY | 0.676 ± 0.055 | –
PSPLLSPPPPRP | 0.706 ± 0.024 | –
PPLSHPPPPLPL | 0.681 ± 0.037 | –
GVGGGSSWVGYG | 0.912 ± 0.063 | –
CSGRDLSLSMAD | 0.744 ± 0.13 | –
VVIFYSSESRRR | 0.724 ± 0.03 | –
GLVGCDPPPPAF | 0.72 ± 0.04 | –
PGRLPPPFASFF | 0.687 ± 0.0091 | –
ELCWCSKDNCYP | 0.6993 ± 0.0059 | –
NVNNNICTYRAI | 0.6776 ± 0.0046 | –
CKEGLGSGRWGR | 0.717 ± 0.018 | –
LRFSFFSSLFVL | 0.516 ± 0.019 | –
LGSFGLASVDGL | 0.713 ± 0.02 | –
VGVCCLSGDGFV | 0.6889 ± 0.0048 | –
LSPPPSPLPPLP | 0.679 ± 0.019 | –
SCPRASSSSLTA | 0.671 ± 0.07 | –
VTCGVGQHAAIA | 0.731 ± 0.053 | –
AISPAPRVSPTP | 0.786 ± 0.052 | –
FELEQNCESATS | 0.706 ± 0.013 | –
CARPVLSAGSWQ | 0.673 ± 0.065 | –
PILSGILFMSPP | 0.755 ± 0.0092 | –
